# Measured values: the RNAGym collection of RNA variant scans (doi:10.1021/acssynbio.7b00057)
# B1: Pistol ribozyme (parent)
# chain: GGGUCGUUGUUCCAUAAUCGCGUGGAUAUGGCACGCAAGUUUCUACCGGGCACCGUAAAUGUCCGACUGGAGCCGUUCGGGCGGCUAUAAACAGACCUCAGGCCCGAAGCGUGGCGGCACCUGCCGCCGGUGGUAAAAAAGAUCGGAAGAGCACACGUCU
# Variants of: B1
# Experiment: aptazyme ON/OFF ratio, guanine; higher = stronger switching; co-transcriptional cleavage with and without guanine
row,Variant,aptazyme ON/OFF ratio
1,U7G G9U U10A U11G C12U C13U,1.27
2,U7G G9U U10A U11G C12U C13A,1.23
3,U7G G9U U10A U11G C12U C13G,1.12
4,U7G G9U U10A U11C C13A,1.35
5,U7G G9U U10A U11C C13G,1.12
6,U7G G9U U10A U11C C13U,1.18
7,U7G G9C U11G C12A C13U,1.47
8,U7G G9C U11G C12A C13A,1.21
9,U7G G9C U11G C12A C13G,1.31
10,U7G G9C U11A C12A C13A,1.35
11,U7G G9C U11A C12A C13G,1.27
12,U7G G9C U11A C12A C13U,1.52
13,U7G G9U U10A U11G C12A C13A,1.11
14,U7G G9U U10A U11G C12A C13G,1.11
15,U7G G9U U10A U11G C12A C13U,1.12
16,U7G G9C U10G U11G C12U,1.32
17,U7G G9C U10G U11G C12G,1.07
18,U7G G9U U10A U11A C12A C13G,1.26
19,U7G G9U U10A U11A C12A C13A,1.17
20,U7G G9U U10A U11A C12A C13U,1.38
21,U7G G9C U10G U11G C13U,1.36

row,Variant,aptazyme ON/OFF ratio
1,U7G G9C U10G U11G C13A,1.17
2,U7G G9C U10G U11G C13G,1.21
3,U7G G9U U10C C12G C13G,1.22
4,U7G G9U U10C C12G C13U,1.29
5,U7G G9U U10C C12G C13A,1.27
6,U7G G9C U11C C13U,1.39
7,U7G G9C U11C C13G,1.06
8,U7G G9C U11C C13A,1.42
9,U7G G9U U10C U11A C12G,1.57
10,U7G G9U U10C U11A C12U,1.8
11,U7G G9U U10C U11A C12A,1.58
12,U7G G9U U10A U11C C12G C13G,1.04
13,U7G G9U U10A U11C C12G C13A,1.22
14,U7G G9U U10A U11C C12G C13U,1.27
15,U7G G9C U11A C12U,1.65
16,U7G G9C U11A C12A,1.94
17,U7G G9C U11A C12G,1.65
18,U7G G9U U10A U11A C12G C13U,1.42
19,U7G G9U U10A U11A C12G C13A,1.13
20,U7G G9U U10A U11A C12G C13G,1.11
21,U7G G9U U10A U11C,1.17

row,Variant,aptazyme ON/OFF ratio
1,U7G G9U U10A U11A,3.18
2,U7G G9U U10A U11G,3.03
3,U7G G9C U11C C12G,1.65
4,U7G G9C U11C C12U,2.15
5,U7G G9C U11C C12A,2.21
6,U7G G9C U11G C12G C13A,1.17
7,U7G G9C U11G C12G C13G,1.36
8,U7G G9C U11G C12G C13U,1.29
9,U7G G9C U10G U11G C12U C13G,1.1
10,U7G G9C U10G U11G C12U C13U,1.24
11,U7G G9C U10G U11G C12U C13A,1.15
12,U7G G9U U10C C12A,2.03
13,U7G G9U U10C C12G,1.37
14,U7G G9U U10C C12U,1.51
15,U7G G9C U11G,1.48
16,U7G G9C U11C,2.53
17,U7G G9C U11A,2.57
18,U7G G9U U10A C12U C13G,1.14
19,U7G G9U U10A C12U C13U,1.15
20,U7G G9U U10A C12U C13A,1.06
21,U7G G9U U10C U11A C12G C13U,1.26

row,Variant,aptazyme ON/OFF ratio
1,U7G G9U U10C U11A C12G C13A,1.13
2,U7G G9U U10C U11A C12G C13G,1.13
3,U7G G9U U10A C12U,1.54
4,U7G G9U U10A C12A,1.65
5,U7G G9U U10A C12G,1.59
6,U7G G9U U10A C13A,1.44
7,U7G G9U U10A C13G,1.18
8,U7G G9U U10A C13U,1.35
9,U7G G9U U10C C12A C13U,1.35
10,U7G G9U U10C C12A C13A,1.42
11,U7G G9U U10C C12A C13G,1.21
12,U7G G9U C12A C13G,1.33
13,U7G G9U C12A C13U,1.14
14,U7G G9U C12A C13A,1.46
15,U7G G9C U11A C13A,1.41
16,U7G G9C U11A C13U,1.62
17,U7G G9C U11A C13G,1.19
18,U7G G9C U11C C12A C13G,1.28
19,U7G G9C U11C C12A C13A,1.42
20,U7G G9C U11C C12A C13U,1.5
